Assay results reported in patent publication US20240158512A1 (TRUEBINDING, published 2024).
Several values for one entry are separate records, joined by “and”; a condition that tells them apart may be missing. Equal values may be shown once. Each block holds one binder with its values, some of them ahead of it.

How the values were obtained:
[1] = target: T1, Galectin-3 (UniProt P17931 1-250, limits assumed); experiment: ELISA blocking assay; TB006 diluted to 0.31 mg/mL in 0.9% NaCl, 25 C, 2 h; blocked partner not named
T1 construct: Target of the anti-Gal3 antibody TB006; also called Gal3; GAL3
T1 sequence (P17931 whole entry): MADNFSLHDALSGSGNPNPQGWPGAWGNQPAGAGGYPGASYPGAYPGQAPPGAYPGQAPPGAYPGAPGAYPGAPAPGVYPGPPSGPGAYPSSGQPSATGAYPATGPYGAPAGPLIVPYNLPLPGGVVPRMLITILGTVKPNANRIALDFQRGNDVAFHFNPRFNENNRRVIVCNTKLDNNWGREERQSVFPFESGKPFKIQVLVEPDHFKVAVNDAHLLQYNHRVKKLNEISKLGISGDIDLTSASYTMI

[2] = target: T1, Galectin-3; experiment: BLI; after 4 C for 3 months
[3] = target: T1, Galectin-3; experiment: BLI; Time 0 (control)
[4] = target: T1, Galectin-3; experiment: BLI; after 40 C for 21 days
[5] = target: T1, Galectin-3; experiment: BLI; after -80 C for 6 months
[6] = target: T1, Galectin-3; experiment: ELISA blocking assay; TB006 diluted to 0.31 mg/mL in 0.9% NaCl, 25 C, 0 h; blocked partner not named; Bag #1, 0 h
[7] = target: T1, Galectin-3; experiment: BLI; after 40 C for 28 days
[8] = target: T1, Galectin-3; experiment: BLI (Binding Activity); long-term stability 5 C, 3 months
[9] = target: T1, Galectin-3; experiment: BLI; after agitation (shear stress)
[10] = target: T1, Galectin-3; experiment: BLI; after 25 C for 9 months
[11] = target: T1, Galectin-3; experiment: BLI (Binding Activity); long-term stability 5 C, 0 months; 5° C. long-term table, 0 months, Batch No. 095I0720
[12] = target: T1, Galectin-3; experiment: BLI; after 4 C for 9 months
[13] = target: T1, Galectin-3; experiment: BLI; after -80 C for 3 months
[14] = target: T1, Galectin-3; experiment: BLI; after 3 freeze/thaws, 25% vol. of container
[15] = target: T1, Galectin-3; experiment: BLI; after 4 C for 1 month
[16] = target: T2, Galectin-3 (Gal3) (UniProt P17931 1-250, limits assumed); experiment: BLI; 20 mg/mL DS after 25 C for 3 months
T2 construct: Target of TB006
T2 sequence (P17931 whole entry): as above
Procedure, shortened: (§1)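 Samples were taken at time zero or after stress: agitation (shear), repeated freeze-thaw cycles, or storage at set temperatures, including a 40° C stress test and cryogenic storage. Binding to Galectin-3 was measured by biolayer interferometry and reported as the dissociation constant (Kd).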

[17] = target: T2, Galectin-3 (Gal3); experiment: BLI; 50 mg/mL DS after 25 C for 14 days
[18] = target: T2, Galectin-3 (Gal3); experiment: BLI; 50 mg/mL DS after 25 C for 1 month
[19] = target: T2, Galectin-3 (Gal3); experiment: BLI; 50 mg/mL DS after -80 C for 3 months
[20] = target: T2, Galectin-3 (Gal3); experiment: BLI; 50 mg/mL DS after -80 C for 9 months
[21] = target: T2, Galectin-3 (Gal3); experiment: BLI; 20 mg/mL DS after 4 C for 3 months
[22] = target: T2, Galectin-3 (Gal3); experiment: BLI; 20 mg/mL DS after 40 C for 28 days
[23] = target: T2, Galectin-3 (Gal3); experiment: BLI; 20 mg/mL DS after 25 C for 1 month
Procedure, shortened: as §1

[24] = target: T2, Galectin-3 (Gal3); experiment: BLI; 20 mg/mL DS after 5 freeze/thaws
Procedure, shortened: as §1

[25] = target: T2, Galectin-3 (Gal3); experiment: BLI; 50 mg/mL DS after 40 C for 21 days
[26] = target: T2, Galectin-3 (Gal3); experiment: BLI; 20 mg/mL DS after -80 C for 9 months
[27] = target: T2, Galectin-3 (Gal3); experiment: BLI; 20 mg/mL DS after 4 C for 9 months
Procedure, shortened: as §1

[28] = target: T2, Galectin-3 (Gal3); experiment: BLI; 50 mg/mL DS, time 0 control
[29] = target: T2, Galectin-3 (Gal3); experiment: BLI; 20 mg/mL DS after -80 C for 1 month
Procedure, shortened: as §1

[30] = target: T2, Galectin-3 (Gal3); experiment: BLI; 20 mg/mL DS after -80 C for 3 months
[31] = target: T2, Galectin-3 (Gal3); experiment: BLI; 20 mg/mL DS after 25 C for 9 months
[32] = target: T2, Galectin-3 (Gal3); experiment: BLI; 50 mg/mL DS after 40 C for 7 days

- IC50 [1]: 1.67 µg/mL and 1.71 µg/mL
- Kd [2]: 3.3 nM
- Kd [3]: 2.8 nM
- Kd [4]: 2.8 nM
- Kd [5]: 2.8 nM
- IC50 [6]: 1.01 µg/mL
- Kd [7]: 3.1 nM
- Kd [8]: 3 nM
- Kd [9]: 2.8 nM
- Kd [10]: 2.8 nM
- Kd [11]: 3 nM
- Kd [12]: 2.2 nM
- Kd [13]: 3.3 nM
- Kd [14]: 2.8 nM
- Kd [15]: 3.3 nM
B1: TB006 (antibody, human IgG4 S228P, kappa, V domains shown)
VH: QVQLVQSGAEVKKPGASVKVSCKASGYSFTNYYMHWVRQAPGQRLEWMGWIYPGSGNTNYNEKFQGRVTITADTSASTAYMELSSLRSEDTAVYYCSTAPGGFDVWGQGTTVTVSS
VL: DIVMTQTPLSLSVTPGQPASISCKSSKSLLHSDGITYLYWYLQKPGQSPQLLIYRMSNLASGVPDRFSGSGSGTDFTLKISRVEAEDVGVYYCAQMLEFPLTFGQGTKLEIKR
notes: Tested as formulated drug substance or drug product in 20 mM L-histidine, 5 mM methionine, 100 mM NaCl, 0.02% polysorbate 80, pH 5.8, or diluted in 0.9% saline; also called 4A11.H3L1; IMT006a

- Kd [16]: 3.4 nM
- Kd [17]: 3.1 nM
- Kd [18]: 2.2 nM
- Kd [19]: 2.5 nM
- Kd [20]: 2.8 nM
- Kd [21]: 3.4 nM
- Kd [22]: 3.8 nM
- Kd [23]: 3.9 nM
- Kd [24]: 3.1 nM
- Kd [25]: 3 nM
- Kd [26]: 1.7 nM
- Kd [27]: 1.9 nM
- Kd [28]: 2.6 nM
- Kd [29]: 3.6 nM
- Kd [30]: 3.5 nM
- Kd [31]: 2.1 nM
- Kd [32]: 2.7 nM
B2: TB006 (antibody, human IgG4 S228P, kappa, V domains shown)
VH: B1 VH
VL: B1 VL
notes: Full antibody tested as drug substance (DS) in 20 mM L-histidine, 5 mM methionine, 100 mM NaCl, 0.02% polysorbate-80, pH 5.8; also called 4A11.H3L1; IMT006a
